Source: patent US20060286609A1 (BIOCHECK, published 2006)
Numbering of substitutions follows the chain as printed.

T1: Mouse Id2: Histidine (mouse, UniProt P41136 1-134, limits assumed)
T1 construct: E. coli fusion protein (vector pGW07); also called m-Id2: His; not shown: His-tag
T1 sequence (looked up): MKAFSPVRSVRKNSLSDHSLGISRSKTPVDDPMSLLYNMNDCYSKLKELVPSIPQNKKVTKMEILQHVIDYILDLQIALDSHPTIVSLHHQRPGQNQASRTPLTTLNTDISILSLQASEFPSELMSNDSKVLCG

T2: Mouse Id3: Histidine (mouse, UniProt P41133 1-119, limits assumed)
T2 construct: E. coli fusion protein (vector pGW07); also called m-Id3: His; not shown: His-tag
T2 sequence (looked up): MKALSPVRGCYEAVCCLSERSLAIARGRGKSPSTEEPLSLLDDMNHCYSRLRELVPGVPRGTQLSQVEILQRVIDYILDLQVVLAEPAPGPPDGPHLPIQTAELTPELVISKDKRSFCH

T3: Human Id2: Histidine (human, UniProt Q02363 1-134, limits assumed)
T3 construct: E. coli fusion protein (vector pGW07); also called h-Id2: His; not shown: His-tag
T3 sequence (looked up): T1 sequence (looked up) with T60S, V131A

T4: Mouse Id1: Histidine (mouse, UniProt P20067-2 1-148)
T4 construct: E. coli fusion protein (vector pGW07); also called m-Id1-His; not shown: His-tag
T4 sequence: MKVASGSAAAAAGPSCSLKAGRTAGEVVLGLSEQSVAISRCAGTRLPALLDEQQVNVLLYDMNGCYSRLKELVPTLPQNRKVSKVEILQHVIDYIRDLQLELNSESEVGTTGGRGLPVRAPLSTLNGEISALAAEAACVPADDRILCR

T5: Human Id4: Histidine (human, UniProt P47928 1-161, limits assumed)
T5 construct: E. coli fusion protein (vector pGW07); also called h-Id4: His; not shown: His-tag
T5 sequence (looked up): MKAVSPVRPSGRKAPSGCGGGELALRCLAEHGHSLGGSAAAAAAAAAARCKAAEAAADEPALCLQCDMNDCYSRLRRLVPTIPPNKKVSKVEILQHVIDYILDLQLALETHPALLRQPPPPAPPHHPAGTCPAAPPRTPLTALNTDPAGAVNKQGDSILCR

T6: Human Id3: Histidine (human, UniProt Q02535 1-119, limits assumed)
T6 construct: E. coli fusion protein (vector pGW07); also called h-Id3: His; not shown: His-tag
T6 sequence (looked up): T2 sequence (looked up) with S31G, S33A, T34A, K112N

T7: Mouse Id4: Histidine (mouse, UniProt P41139 1-161, limits assumed)
T7 construct: E. coli fusion protein (vector pGW07); also called m-Id4: His; not shown: His-tag
T7 sequence (looked up): T5 sequence (looked up) with H125L, T130A, A133V

B1: rabbit monoclonal anti-mouse Id1, clone #BCH-1/#37-2 (antibody, V domains shown)
VH: QSVEESGGRLVTPGTPLTLTCKVSGFDINSYAMDWFRQAPGKGLEWIGMMSTRGNTYYTSWAKGRFTISKTSSTTVDLKMTSLTTEDTATYFCARGGLWGPGTLVTVSS
VL: RVLTQTASPVSAAVGGTVTINCQASQSVYNGNRLGWYQLKPGQSPKELIHDASTLASGVPSRFRGSGSGTQFTLTINDVQCDDAATYYCVGSYACSTGDCNVFGGGTEVVVK
notes: Rabbit IgG from hybridoma, Protein G purified; also called m Id1 MoAb 37-2; Rabbit Monoclonal Anti-Mouse Id1 (#37-2)

How the values were obtained:
Mouse Id2: Histidine [1] = biological target: T1, Mouse Id2: Histidine; assay: ELISA, coated antigen, Ab 0.005 ug/ml
[2] = biological target: Human Id1: Histidine (human) (UniProt P41134); assay: ELISA, coated antigen, Ab 0.005 ug/ml
Human Id1: Histidine (human), sequence (P41134 whole entry): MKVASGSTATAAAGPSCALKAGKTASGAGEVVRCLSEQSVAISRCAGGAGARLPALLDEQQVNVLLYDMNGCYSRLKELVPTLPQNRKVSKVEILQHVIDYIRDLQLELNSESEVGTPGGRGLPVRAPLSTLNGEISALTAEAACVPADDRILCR
Mouse Id3: Histidine [3] = biological target: T2, Mouse Id3: Histidine; assay: ELISA, coated antigen, Ab 0.005 ug/ml
Human Id2: Histidine [4] = biological target: T3, Human Id2: Histidine; assay: ELISA, coated antigen, Ab 0.100 ug/ml
Mouse Id2: Histidine [5] = biological target: T1, Mouse Id2: Histidine; assay: ELISA, coated antigen, Ab 0.100 ug/ml
Mouse Id1: Histidine [6] = biological target: T4, Mouse Id1: Histidine; assay: ELISA, coated antigen, Ab 0.100 ug/ml
[7] = biological target: Human Id1: Histidine (human) (UniProt P41134); assay: ELISA, coated antigen, Ab 0.100 ug/ml
Human Id4: Histidine [8] = biological target: T5, Human Id4: Histidine; assay: ELISA, coated antigen, Ab 0.100 ug/ml
Human Id3: Histidine [9] = biological target: T6, Human Id3: Histidine; assay: ELISA, coated antigen, Ab 0.100 ug/ml
Mouse Id4: Histidine [10] = biological target: T7, Mouse Id4: Histidine; assay: ELISA, coated antigen, Ab 0.100 ug/ml
Mouse Id3: Histidine [11] = biological target: T2, Mouse Id3: Histidine; assay: ELISA, coated antigen, Ab 0.100 ug/ml
[12] = biological target: Human Id1: Histidine (human) (UniProt P41134); assay: ELISA, coated antigen, Ab 0.000 ug/ml (blank, diluent only)
[13] = biological target: Human Id1: Histidine (human) (UniProt P41134); assay: ELISA, coated antigen, Ab 0.010 ug/ml
[14] = biological target: Human Id1: Histidine (human) (UniProt P41134); assay: ELISA, coated antigen, Ab 0.250 ug/ml
[15] = biological target: Human Id1: Histidine (human) (UniProt P41134); assay: ELISA, coated antigen, Ab 0.050 ug/ml
[16] = biological target: Human Id1: Histidine (human) (UniProt P41134); assay: ELISA, coated antigen, Ab 0.025 ug/ml
Human Id2: Histidine [17] = biological target: T3, Human Id2: Histidine; assay: ELISA, coated antigen, Ab 0.500 ug/ml
Mouse Id2: Histidine [18] = biological target: T1, Mouse Id2: Histidine; assay: ELISA, coated antigen, Ab 0.500 ug/ml
Mouse Id1: Histidine [19] = biological target: T4, Mouse Id1: Histidine; assay: ELISA, coated antigen, Ab 0.500 ug/ml
[20] = biological target: Human Id1: Histidine (human) (UniProt P41134); assay: ELISA, coated antigen, Ab 0.500 ug/ml
Human Id4: Histidine [21] = biological target: T5, Human Id4: Histidine; assay: ELISA, coated antigen, Ab 0.500 ug/ml
Human Id3: Histidine [22] = biological target: T6, Human Id3: Histidine; assay: ELISA, coated antigen, Ab 0.500 ug/ml
Mouse Id4: Histidine [23] = biological target: T7, Mouse Id4: Histidine; assay: ELISA, coated antigen, Ab 0.500 ug/ml
Mouse Id3: Histidine [24] = biological target: T2, Mouse Id3: Histidine; assay: ELISA, coated antigen, Ab 0.500 ug/ml

Molecule | A450 (Mouse Id2: Histidine [1]) [A450] | A450 [2] [A450] | A450 (Mouse Id3: Histidine [3]) [A450] | A450 (Human Id2: Histidine [4]) [A450] | A450 (Mouse Id2: Histidine [5]) [A450] | A450 (Mouse Id1: Histidine [6]) [A450] | A450 [7] [A450] | A450 (Human Id4: Histidine [8]) [A450] | A450 (Human Id3: Histidine [9]) [A450] | A450 (Mouse Id4: Histidine [10]) [A450] | A450 (Mouse Id3: Histidine [11]) [A450] | A450 [12] [A450] | A450 [13] [A450] | A450 [14] [A450] | A450 [15] [A450] | A450 [16] [A450] | A450 (Human Id2: Histidine [17]) [A450] | A450 (Mouse Id2: Histidine [18]) [A450] | A450 (Mouse Id1: Histidine [19]) [A450] | A450 [20] [A450] | further results
rabbit monoclonal anti-human Id1, clone #BCH-2/#5-3 (antibody) | 0.048 | 0.209 | 0.047 | 0.054 | 0.049 | 0.068 | 1.86 | 0.047 | 0.046 | 0.049 | 0.05 | 0.052 | 0.362 | 2.76 | 1.22 | 0.728 | 0.062 | 0.049 | 0.151 | 3.15 | A450 (Human Id4: Histidine [21]): 0.056 A450; A450 (Human Id3: Histidine [22]): 0.052 A450; A450 (Mouse Id4: Histidine [23]): 0.05 A450; A450 (Mouse Id3: Histidine [24]): 0.05 A450
rabbit monoclonal anti-mouse/human Id1, clone #BCH-1/#195-14 (antibody) | 0.052 | 0.31 | 0.048 | 0.053 | 0.054 | 2.04 | 2.17 | 0.049 | 0.047 | 0.049 | 0.05 | 0.05 | 0.569 | 2.88 | 1.7 | 1.12 | 0.072 | 0.057 | 2.79 | 3.02 | A450 (Human Id4: Histidine [21]): 0.048 A450; A450 (Human Id3: Histidine [22]): 0.053 A450; A450 (Mouse Id4: Histidine [23]): 0.049 A450; A450 (Mouse Id3: Histidine [24]): 0.051 A450
B1 |  | 0.057 |  |  |  |  | 0.117 |  |  |  |  | 0.051 | 0.056 | 0.187 | 0.092 | 0.073 |  |  |  | 0.27 | 
